Reference: US20250313641A1

Biological target: cynomolgus monkey IL-2 receptor (IL-2R) on cyno PBMC subsets (cynomolgus monkey) (UniProt Q38J85)
Experiment: cell-based or functional assay

Chain of cynomolgus monkey IL-2 receptor (IL-2R) on cyno PBMC subsets (cynomolgus monkey) (Q38J85 27-551, chain 1 of 2): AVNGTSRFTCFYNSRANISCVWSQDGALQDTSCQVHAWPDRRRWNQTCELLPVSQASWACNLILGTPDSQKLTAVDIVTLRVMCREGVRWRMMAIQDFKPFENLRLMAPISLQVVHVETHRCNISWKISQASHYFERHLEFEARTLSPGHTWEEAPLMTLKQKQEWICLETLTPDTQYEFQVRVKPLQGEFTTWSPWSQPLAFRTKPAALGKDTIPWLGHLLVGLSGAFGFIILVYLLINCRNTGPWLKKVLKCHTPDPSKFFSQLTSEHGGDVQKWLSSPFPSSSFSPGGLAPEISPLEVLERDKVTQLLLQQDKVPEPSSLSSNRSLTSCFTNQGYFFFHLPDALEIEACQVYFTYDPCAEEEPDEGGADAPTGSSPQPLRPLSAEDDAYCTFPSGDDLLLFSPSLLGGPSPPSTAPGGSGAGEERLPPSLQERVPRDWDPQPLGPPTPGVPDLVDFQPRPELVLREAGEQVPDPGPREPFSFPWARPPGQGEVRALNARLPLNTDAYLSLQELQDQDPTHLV
Chain of cynomolgus monkey IL-2 receptor (IL-2R) on cyno PBMC subsets (cynomolgus monkey) (chain, as listed by the source, chain 2 of 2): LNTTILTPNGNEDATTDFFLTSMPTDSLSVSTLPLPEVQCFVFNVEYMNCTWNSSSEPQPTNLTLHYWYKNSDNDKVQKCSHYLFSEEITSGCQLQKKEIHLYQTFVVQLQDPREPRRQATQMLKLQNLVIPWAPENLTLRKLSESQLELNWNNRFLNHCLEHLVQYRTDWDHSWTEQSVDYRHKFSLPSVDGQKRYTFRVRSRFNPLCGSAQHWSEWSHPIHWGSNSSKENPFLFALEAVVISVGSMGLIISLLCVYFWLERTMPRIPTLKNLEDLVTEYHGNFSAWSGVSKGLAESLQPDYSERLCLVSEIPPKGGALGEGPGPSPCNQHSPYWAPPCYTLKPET

Ki67 (Cyno) EC50 [nM], CD4^+ T cells: 0.01 nM
Ki67 (Cyno) EC50 [nM], CD8^+ T cells: 0.05 nM
Ki67 (Cyno) EC50 [nM], T-regs: 0.009 nM
Ki67 (Cyno) Emax (%), CD4^+ T cells: 90%
Ki67 (Cyno) Emax (%), CD8^+ T cells: 88%
Ki67 (Cyno) Emax (%), NK cells: 92%
Ki67 (Cyno) Emax (%), T-regs: 69%
Substance: Recombinant human IL-2 (from UniProt P60568 21-153) (ligand)
